Measured values as given in patent US20150210756A1 (NEW YORK UNIVERSITY, published 2015).

molecular target: T1, LukE (S. aureus, UniProt Q2FXB0 24-306); assay: ELISA after cis-display panning
T1 construct: also called leukotoxin E

| Binder | binding result |
| --- | --- |
| Luk37 (designed binder, not shown: C-terminal poly-histidine tag) LPAPKNLVVSRVTEDSARLSWTAPDAAFDSFLIQYQESEKVGEAIVLTVPGSERSYDLTGLKPGTEYTVSIYGVVGWPLFIQSNPLSAIFTT | binds |
| Luk32 (designed binder, not shown: C-terminal poly-histidine tag) LPAPKNLVVSRVTEDSARLSWYHENAYLLFDSFLIQYQESEKVGEAIVLTVPGSERSYDLTGLKPGTEYTVSIYGVVYDLTPEKRSSNPLSAIFTT | binds |
| Luk41 (designed binder, not shown: C-terminal poly-histidine tag) LPAPKNLVVSRVTEDSARLSWTAPDAAFDSFLIQYQESEKVGEAIVLTVPGSERSYDLTGLKPGTEYTVSIYGVSEVPYSEYWFSNPLSAIFTT | binds |
| Luk42 (designed binder, not shown: C-terminal poly-histidine tag) LPAPKNLVVSRVTEDSARLSWTAPDAAFDSFLIQYQESEKVGEAIVLTVPGSERSYDLTGLKPGTEYTVSIYGVVWGYRLTTEHSNPLSAIFTT | binds |
| Luk26 (designed binder, also called anti-LukE FN3 domain Luk26; not shown: C-terminal poly-histidine tag) LPAPKNLVVSRVTEDSARLSWTAPDAAFDSFHIEYAEPWVWGEAIVLTVPGSERSYDLTGLKPGTEYVVFIGGVKGGHNSTPLSAIFTT | binds |
| Luk31 (designed binder, not shown: C-terminal poly-histidine tag) LPAPNNLVVSRVTEDSARLSWDWDKYYTNRFDSFLIQYQESEKVGEAIVLTVPGSERSYDLTGLKPGTEYTVSIYGVLVRDYIRAAEWYSNPLSAIFTT | binds |
| Luk27 (designed binder, also called anti-LukE FN3 domain Luk27; not shown: C-terminal poly-histidine tag) LPAPKNLVVSRVTEDSARLSWTAPDAAFDSFPIVYQEWQFYGEAIVLTVPGSERSYDLTGLKPGTEYLVDIYGVKGGSWSYPLSAIFTT | binds |
| Luk29 (designed binder, not shown: C-terminal poly-histidine tag) LPAPKNLVVSRVTEDSARLSWDEQFVSNFDSFLIQYQESEKVGEAIVLTVPGSERSYDLTGLKPGTEYTVSIYGVFVPWDGFSEINYSNPLSAIFTT | binds |
| Luk60 (designed binder, not shown: C-terminal poly-histidine tag) LPAPKNLVVSRVTEDSARLSWTAPDAAFDSFDIQYWEWWPFGEAIVLTVPGSERSYDLTGLKPGTEYGVIILGVKGGFRSTPLSAIFTT | binds |
| Luk57 (designed binder, not shown: C-terminal poly-histidine tag) LPAPKNLVVSRVTEDSARLSWTAPDAAFNSFYIEYFEWFPAGEAIVLTVPGSERSYDLTGLKPGTEYAVIIHGVKGGQRSTPLSAIFTT | binds |
| Luk54 (designed binder, not shown: C-terminal poly-histidine tag) LPAPKNLVVSRVTEDSARLSWTAPDAVFDSFRIEYSEWWPIGEAIVLTVPGSERSYDLTGLKPGTEYGVVIAGVKGGGYSVPLSAIFTT | binds |
| Luk48 (designed binder, not shown: C-terminal poly-histidine tag) LPAPKNLVVSRVTEDSARLSWTAPDAAFDSFHIEYGEWWPTGEAIVLTVPGSERSYDLTGLKPGTEYGVLIVGVKGGFRSSPLSAIFTT | binds |
| Luk28 (designed binder, not shown: C-terminal poly-histidine tag) LPAPKNLVVSRVTEDSARLSWTAPDAAFDSFAIQYWEWWPPGEAIVLTVPGSERSYDLTGLKPGTEYGVIILGVKGGWYSNPLSAIFTT | binds |
| Luk50 (designed binder, not shown: C-terminal poly-histidine tag) LPAPKNLVVSRVTEDSARLSWTAPDAAFDSFVIPYSEWWPVGEAIVLTVPGSERSYDLTGLKPGTEYGVYIVGVKGGTWSAPLSAIFTT | binds |
| Luk49 (designed binder, not shown: C-terminal poly-histidine tag) LPAPKNLVVSRVTEDSARLSWTAPDAAFDSFAIVYAEHWPAGEAIVLTVPGSERSYDLTGLKPGTEYNVTIPGVKGGKYSDPLSAIFTT | binds |
| Luk46 (designed binder, not shown: C-terminal poly-histidine tag) LPAPKNLVVSRVTEDSARLSWTAPDAAFDSFWIHYEESTWAGEAIVLTVPGSERSYDLTGLKPGTEYGVVIVGVKGGLKSHPLSAIFTT | binds |
| Luk43 (designed binder, not shown: C-terminal poly-histidine tag) LPAPKNLVVSRVTEDSARLSWTAPDAAFDSFLIQYQESEKVGEAIVLTVPGSERSYDLTGLKPGTEYTVSIYGVNSFGRPTLNLFSNPLSAIFTT | binds |
| Luk40 (designed binder, not shown: C-terminal poly-histidine tag) LPAPKNLVVSRVTEDSARLSWTAPDAAFDSFLIQYQESEKVGEAIVLTVPGSERSYDLTGLKPGTEYTVSIYGVSYAGEPLLWIYSNPLSAIFTT | binds |

| Binder | binding result |
| --- | --- |
| Luk44 (designed binder, not shown: C-terminal poly-histidine tag) LPAPKNLVVSRVTEDSARLSWTAPDAAFDSFLIQYQESEKVGEAIVLTVPGSERSYDLTGLKPGTEYTVSIYGVEWLQYYGETLFSNPLSAIFTT | binds |
| Luk45 (designed binder, not shown: C-terminal poly-histidine tag) LPAPKNLVVSRVTEDSARLSWTAPDAAFDSFLIQYQESEKVGEAIVLTVPGSERSYDLTGLKPGTEYTVSIYGVAWLTNAYEWEFSNPLSAIFTT | binds |
| Luk56 (designed binder, not shown: C-terminal poly-histidine tag) LPAPKNLVVSRVTEDSARLSWTAPDAAFDSFYIQYIELEIGEAIVLTVPGSERSYDLTGLKPGTEYGVFISGVKGGWNSYPLSAIFTT | binds |
| Luk58 (designed binder, not shown: C-terminal poly-histidine tag) LPAPKNLVVSRVTEDSARLSWTAPDAAFDSFDIEYDESAHFGEAIVLTVPGSERSYDLTGLKPGTEYIVFIYGVKGGYASIPLSAIFTT | binds |
| Luk47 (designed binder, not shown: C-terminal poly-histidine tag) LPAPKNLVVSRVTEDSARLSWTAPDAAFDSFGIQYFETTESGEAIVLTVPGSERSYDLTGLKPGTEYVVFISGVKGGPLSWPLSAIFTT | binds |
| Luk52 (designed binder, not shown: C-terminal poly-histidine tag) LPAPKNLVVSRVTEDSARLSWTAPDAAFDSFWIQYGEAQEFGEAIVLTVPGSERSYDLTGLKPGTEYIVFITGVKGGNKSYPLSAIFTT | binds |
| Luk53 (designed binder, not shown: C-terminal poly-histidine tag) LPAPKNLVVSRVTEDSARLSWTAPDAAFDSFTIQYFEAEANGEAIVLTVPGSERSYDLTGLKPGTEYLVFIVGVKGGHSSLPLSAIFTT | binds |
| Luk59 (designed binder, not shown: C-terminal poly-histidine tag) LPAPKNLVVSRVTEDSARLSWTAPDAAFDSFDISYNEFAWSGEAIVLTVPGSERSYDLTGLKPGTEYVVYIHGVKGGPTSYPLSAIFTT | binds |
| Luk55 (designed binder, not shown: C-terminal poly-histidine tag) LPAPKNLVVSRVTEDSARLSWTAPDAAFDSFWIQYFESAGEGEAIVLTVPGSERSYDLTGLKPGTEYLVFIVGVKGGVPSYPLSAIFTT | binds |
| Luk51 (designed binder, not shown: C-terminal poly-histidine tag) LPAPKNLVVSRVTEDSARLSWTAPDAAFDSFQIHYFESEPGGEAIVLTVPGSERSYDLTGLKPGTEYVVFIIGVKGGWSSLPLSAIFTT | binds |
| Luk38 (designed binder, also called anti-LukE FN3 domain Luk38; not shown: C-terminal poly-histidine tag) LPAPKNLVVSRVTEDSARLSWTAPDAAFDSFLIQYQESEKVGEAIVLTVPGSERSYDLTGLKPGTEYTVSIYGVELIYHGWLDFVFSNPLSAIFTT | binds |
| Luk39 (designed binder, not shown: C-terminal poly-histidine tag) LPAPKNLVVSRVTEDSARLSWTAPDAAFDSFLIQYQESEKVGEAIVLTVPGSERSYDLTGLKPGTEYTVSIYGVRVFYFSVEPTWFSNPLSAIFTT | binds |
| Luk33 (designed binder, not shown: C-terminal poly-histidine tag) LPAPKNLVVSRVTEDSARLSWTAPDAAFDSFLIQYQESEKVGEAIVLTVPGSERSYDLTGLKPGTEYTVSIYGVAFIPDEIEFSNPLSAIFTT | binds |
| Luk36 (designed binder, not shown: C-terminal poly-histidine tag) LPAPKNLVVSRVTEDSARLSWTAPDAAFDSFLIQYQESEKVGEAIVLTVPGSERSYDLTGLKPGTEYTVSIYGVADVPDEYEFSNPLSAIFTT | binds |
| Luk34 (designed binder, not shown: C-terminal poly-histidine tag) LPAPKNLVVSRVTEDSARLSWTAPDAAFDSFLIQYQESEKVGEAIVLTVPGSERSYDLTGPKPGTEYTVSIYGVVVVPHEFEFSNPLSAIFTT | binds |
| Luk35 (designed binder, not shown: C-terminal poly-histidine tag) LPAPKNLVVSRVTEDSARLSWTAPDAAFDSFLIQYQESEKVGEAIVLTVPGSERSYDLTGLKPGTEYTVSIYGVAHIPWEFEWSKPLSAIFTT | binds |
| Luk30 (designed binder, not shown: C-terminal poly-histidine tag) LPAPKNLVVSRVTEDSARLSWAFNWNYFAFDSFLIQYQESEKVGEAIVLTVPGSERSYDLTGLKPGTEYTVSIYGVVALNTGNKKSNPLSAIFTT | binds |

molecular target: T2, LukD (S. aureus, UniProt Q2FXB1 27-327); assay: ELISA after cis-display panning
T2 construct: also called leukotoxin D
T2 sequence: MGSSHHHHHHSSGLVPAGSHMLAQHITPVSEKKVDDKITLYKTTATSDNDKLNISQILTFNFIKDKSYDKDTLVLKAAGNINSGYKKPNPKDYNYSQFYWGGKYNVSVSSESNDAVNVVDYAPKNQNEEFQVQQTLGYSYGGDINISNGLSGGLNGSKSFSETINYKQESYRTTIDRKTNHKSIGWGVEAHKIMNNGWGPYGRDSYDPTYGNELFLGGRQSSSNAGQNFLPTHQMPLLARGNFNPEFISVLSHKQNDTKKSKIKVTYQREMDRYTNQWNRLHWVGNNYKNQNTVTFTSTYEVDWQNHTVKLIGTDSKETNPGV

| Binder | binding result |
| --- | --- |
| Luk8 (designed binder, not shown: C-terminal poly-histidine tag) LPAPKNLVVSRVTEDSARLSWKRKPWAPIFDSFLIQYQESEKVGEAIVLTVPGSERSYDLTGLKPGTEYTVSIYGVWDHAGPKYEIESNPLSAIFTT | binds |
| Luk21 (designed binder, not shown: C-terminal poly-histidine tag) LPAPKNLVVSRVTEDSARLSWVTKPWAEYFDSFLIQYQESEKVGEAIVLTVPGSERSYDLTGLKPGTEYTVSIYGVWDHAGPKYEIESNPLSAIFTT | binds |
